For this data set, the system named is HIV-1 reverse transcriptase (HXB2-RT) (HIV-1 (HXB2)). Briefly: MST. Conditions: MST: 50 nM RNA complex titrated with RT; binding buffer, pH and temperature not stated; annealing buffer 10 mM Tris-HCl pH 7.5, 10 mM NaCl, 1 mM MgCl2, 140 mM ….

As usually defined, the Kd is the constant that tells how readily two partners part at equilibrium. A high value points to lower affinity.

In the case of MAL 5'UTR:tRNALys3, the Kd is 1360 nM.

For the origin of these results see paper PMC7793103.
